Earlier results in PMC3308923.

Target: HIV-1 capsid CA (Human immunodeficiency virus 1) (UniProt O93182)
Details: cited from earlier work

Chain of HIV-1 capsid CA (Human immunodeficiency virus 1) (O93182 133-363): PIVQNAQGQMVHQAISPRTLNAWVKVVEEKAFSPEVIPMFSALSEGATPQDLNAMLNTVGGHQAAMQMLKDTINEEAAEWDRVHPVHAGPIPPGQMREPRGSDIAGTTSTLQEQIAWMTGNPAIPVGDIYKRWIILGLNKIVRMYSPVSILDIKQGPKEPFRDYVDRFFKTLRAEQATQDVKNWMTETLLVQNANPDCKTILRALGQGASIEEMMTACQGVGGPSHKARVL

Substance: CAI peptide
- Kd: 15 µM
